Measurements reported in the supplement of paper PMC9170038.

Tested on: K4 kissing-loop RNA reporter
Test: apparent KD of K4 kissing-loop reporter; higher = weaker reporter binding
Conditions: Eterna round: R107
Protocol: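 RNA-MaP round R107: designed RNA switches with theophylline, tryptophan, arginine or FMN aptamers are transcribed on-chip within common flanks. They are titrated with a labelled K4 kissing-loop RNA reporter in RNA-MaP buffer (100 mM Tris pH 7.5, 80 mM KCl, 4 mM MgCl2), without ligand or with the indicated ligand. Median apparent KD per design.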

[1] = input ligand: theophylline 20 uM
[2] = input ligand: tryptophan 2.4 mM
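Further: bound reporter read as fluorescence of individual clusters on recovered sequencing chips by microscopy, with normalized cluster intensities fitted with a binding model.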

Row | Sequence | apparent KD of K4 kissing-loop reporter (input ligand: FMN 200 uM) | apparent KD of K4 kissing-loop reporter (input ligand: arginine 13.2 mM) | apparent KD of K4 kissing-loop reporter (input ligand: none) | apparent KD of K4 kissing-loop reporter [1] | apparent KD of K4 kissing-loop reporter [2]
1 | GUAGUGAUGUUACGAAUAUUCCAUCAUAGAGAGGAUAUUGUUCCUUCGAGAAGGUUCUGAGAAUUAAAAUUUAAUAAAAUGAAGG [Exclusion FMN A GF 1] | 246 nM | 302 nM | 277 nM | 357 nM | 160 nM
2 | GUAGUGAUGUUACGAGUAUUCCAUCGUAGAGAGGAUAUGGUUCCUUCCAGAAGGUUCUGAGAAUUAAAAUUUGAUAAAAUGAGGG [Exclusion FMN A GF 2] | 304 nM | 251 nM | 390 nM | 392 nM | 252 nM
3 | GUAUCGCUAGGAGGAUAUUCCAAUCCGCCUAUAAUAGGUGGUACGGAGUGAUGUUCCGAUUUACGGGAAGAAGGCCUAGUGAUAC [FMN B 17] | 155 nM | 318 nM | 302 nM | 381 nM | 346 nM
4 | GUAUCGCUAGGAGGAUAUUCCAUUUUACAUAUAAAUGGAUAUGCGGAGUGAUGUUCCGAUUUACGGGAAGAAGGCCUAGUGAUAC [FMN B 20] | 138 nM | 220 nM | 219 nM | 256 nM | 208 nM
5 | GUAUCGCUAGGAGGAUAUUUCAAAUAACAAAUAAAUGGUUAUACGGAGUGAUGUUCCGAUUUACGGAAAGAAGGCCUAGUGAUAC [FMN B 4] | 112 nM | 203 nM | 210 nM | 218 nM | 203 nM
6 | GUAUGUGGAAACACGUACUUAUAUCCUAGGCAGGAUAUGCGGAAACGCAGAAGGGCCACCGGCGAGAAAAUCCAGUGAUGUUGGA [Ex FMN A 7] | 260 nM | 248 nM | 244 nM | 238 nM | 249 nM
7 | GUAUGUGGAAACACGUACUUGUAUCCUAAGCAGGAUAUGCGGAAACGCAGAAGGGCUACCAACGAGUUUAUCCAGUGAUGUUGGA [Ex FMN A 13] | 507 nM | 298 nM | 332 nM | 393 nM | 455 nM
8 | GUAUUGUGCCUGGAUACCAGACACCCGAGUGAUGUUCGGAGCAGAGUGAUGUUCUAAUAAGUCCCUUGGCAGCCGGUCGCAGUCG [Same State Theophylline B gf 4] | 810 nM | 869 nM | 914 nM | 535 nM | 886 nM
9 | GUCAACCCAGCUGAUACCAGCCGGUUACGCACAUGCACACCCAGUGAUGUUGGGUAUUAGGGCCCUUGGCAGCAGCCUCUUGGCU [theeternabot_sameState_KL_Theo_B_30] | 165 nM | 162 nM | 169 nM | 182 nM | 149 nM
10 | GUCCACACUGCAGGAUAUGGAGAAGUAGCGAGGGAGUUUGGAAGCACACCUCUGGCAGUGAUGUUGCCAGAAGGGCGGUGCGGCG [Inlaindi] | 109 nM | 80.2 nM | 80.6 nM | 84.1 nM | 93.9 nM
11 | GUCCCAGUGAUGUUGGUAGGCGAGCGGGAUACCAGCCAAGACUCAGGCCCUUGGCAGCCCACAUAUCCCACGUAGGGAGUAGCUC [Same State - Theophylline A (Freestyle 18)] | 269 nM | 172 nM | 210 nM | 274 nM | 209 nM
12 | GUCCUGAGUGAUGUUCGGGUCGUUCGGGAAGGAGCGCCCGCAAGGGCAGGUAGGUCGCCCGGAUCUCUCAGGUAACUGAGAGACC [#2 Same State - Arginine A Attempt #29 (HarryS)] | 563 nM | 303 nM | 448 nM | 554 nM | 383 nM
13 | GUCGAUGGUAACCGCUGACGUCGAUGAUGGGAGGAUAUGUUAGUUGACAGAAGGCCCAGUGAUGUUGGGCGUUUGUCUUGGUAUA [Ustecexe] | 517 nM | 143 nM | 145 nM | 134 nM | 136 nM
14 | GUCUCAAAAGAGGCAAGCACUCACGAGGACAAGGAUAUCAUUUCAAUGAGAAGGUGUCCUCGUCCUCAGUGAUGUUGAGGAGUGC [Omei KL FMN A SS E 1] | 423 nM | 159 nM | 259 nM | 299 nM | 233 nM
15 | GUGAAGGAGCUGCAGUGAUGUUGCAGAGACUAGGAUAUCAGGAAACUGAGAAGGAGUCAACUCCUUCACCUAGACUGCAACAUAA [[F]''-[K1]-[K2]-[F1]-[F2]-[F2]'-[F1]'-[K]'_Design3] | 99.6 nM | 69.7 nM | 67.7 nM | 75.7 nM | 134 nM
16 | GUGCAAAGCACCGGCACGAGCAGCCUAAAGGAGGAUAUGACGAAAGUCAGAAGGCCUAGUGAUGUUAGGUCUUGCUUGAGUCGAA [Omei KL FMN A Exc B v2] | 156 nM | 214 nM | 301 nM | 323 nM | 320 nM
17 | GUGCAGUGAUGUUGCACGAGGAAAGACGAUACCAGCCGUAAAUAAGGCCCUUGGCAGCGUAGGCCAGCAUAAAGUAUGCUAGUCU [Oresbelaen] | 120 nM | 107 nM | 111 nM | 89.2 nM | 99 nM
18 | GUGCGGCUAGUGAUGUUGGUUGCGUGGGAAGGAGCGCAGAAACAUGCAGGUAGGUCGCCCACAUCUCGGAUAAGAGACUAAUUCA [Letiisve] | 606 nM | 182 nM | 168 nM | 220 nM | 307 nM
19 | GUGCGGCUAGUGAUGUUGGUUGCGUGGGAAGGAGCGCAGAAACAUGCAGGUAGGUCGCCCACAUCUCGGAUAAGAGAUUAAUUCC [Arorso] | 291 nM | 153 nM | 252 nM | 262 nM | 244 nM
20 | GUGGAAAUCAGAAGGAGCGUCUACAAUAAGAAAACCAGUGAUGUUGGUUUUAUUUAAUGAAGACAGGUAGGUCGCUGAAUUUCUA [Same State Arginie B GF 20] | 138 nM | 106 nM | 118 nM | 105 nM | 118 nM
21 | GUGUCCUAGUCGGCCGCCACUGGUACGAAAAUAGAAGGACGUGUGCACAUGAGUGAUGUUCAUGUCAGGACCGGGACUAGGGUGU [KL-SSTryp-B6 Brourdwalk2] | 281 nM | 304 nM | 367 nM | 332 nM | 316 nM
22 | GUGUGUGUCGGAGGAUAUGCGAUAGAUGUAGGAGAAUUAGUGAUGUUAGUUAUGGUAGAGAUAGGAGUAGAAGGUUGGUGUGUGU [RHig 3/7 B] | 440 nM | 413 nM | 484 nM | 572 nM | 428 nM

Row | Sequence | apparent KD of K4 kissing-loop reporter (input ligand: FMN 200 uM) | apparent KD of K4 kissing-loop reporter (input ligand: arginine 13.2 mM) | apparent KD of K4 kissing-loop reporter (input ligand: none) | apparent KD of K4 kissing-loop reporter [1] | apparent KD of K4 kissing-loop reporter [2]
23 | GUUAAGUCGCGAAGGAGCGCGAACUAACAACGCAGUGAUGUUGCGUUGUACGUAGUAUAAUCGCAGGUAGGUCGCGCGACAGGCC [Arg B SS t16] | 116 nM | 85.5 nM | 98.4 nM | 81 nM | 92.3 nM
24 | GUUACGCAUGGAAGGAGCGCAUGCUCAGCUAUAAGCUCAGUGAUGUUGAGCAUUUUUUUUUUGCAGGUAGGUCGCCAUGUGUAAC [Ex Arginine B K4 30] | 172 nM | 188 nM | 218 nM | 191 nM | 170 nM
25 | GUUACGCAUGGAAGGAGCGCGAAAAUUAAAUGUGAGUGAUGUUCACAAAUAAAUUAAAUAACGCAGGUAGGUCGCCAUGUGUAAC [Ex Arginine B K4 3] | 80.3 nM | 77.6 nM | 89 nM | 80.7 nM | 80.9 nM
26 | GUUAUCACGCGAAGGAGCGCGGAGCGAUAACGCAGUGAUGUUGCGUUAAACGUAAUAUAAUCGCAGGUAGGUCGCGCGUGAUACC [Arg B Ex t6] | 104 nM | 80.2 nM | 94.2 nM | 82.1 nM | 95.6 nM
27 | GUUAUGGACCUGGAUACCAGCUGGUACUAAGUGGGAAAAUGAAAGUGAUGUUUUCGUGCUAGCCCUUGGCAGCCAGCAACCCGCA [XTheo-B6] | 120 nM | 124 nM | 121 nM | 133 nM | 110 nM
28 | GUUCCCUACAAGGAUACCAGAACGUGUAGUCCGAGCGCUAGUGAUGUUGGCGUCUACCUCUUCCCUUGGCAGCCUGCAAAUCAGU [theeternabot_sameState_KL_Theo_B_48] | 269 nM | 155 nM | 236 nM | 217 nM | 200 nM
29 | GUUGACUACCAGAGGUGAUGUAUAGUAUCGCGAGGACCGGUACGGCCGCCACUCGUGAAGAGAAAGGAGUGAUGUUCCGUAAUGG [C9] | 222 nM | 254 nM | 322 nM | 340 nM | 122 nM
30 | GUUGGGUGGGUUAAAGAAUUUGUCUGACAACGAGGACCGGUACGGCCGCCACUCGAGUGAUGUUCGAGAAGAAAGAAAGAAAGAA | 66.4 nM | 123 nM | 95.4 nM | 146 nM | 126 nM
31 | UAAAUAAUAAAACGAGUGAUGUUCGACGAUACCAGCCUCGAUAGAGGCCCUUGGCAGCGUAAAUGAUCACAAAGCCAAGGAAUAA [#OpenEnded 1] | 158 nM | 174 nM | 158 nM | 192 nM | 134 nM
32 | UAAAUAAUAAAACGAGUGAUGUUCGACGAUACCAGCCUCGAUAGAGGCCCUUGGCAGCGUAUGUGAUCACUAAGCCAAGGAAUAA [#02 K4 Theophylline A Exclusion] | 164 nM | 175 nM | 167 nM | 196 nM | 132 nM
33 | UAAAUAAUUCAAGGAUAUGUUUUCUAUUUCGAGUGAUGUUCGGUCUUAAUAAAUUUAAUAGAUUAUACAGAAGGUGAUGGAUAGU [Astrostest] | 162 nM | 164 nM | 130 nM | 188 nM | 99.8 nM
34 | UAAGAACAGUCGGCCGCCACUUGAACUACAGAAGUAGGUAUAGCACCGUGAGUGAUGUUCACUGAAAGGACCGGGACUUGCUCCG [theeternabot_sameState_KL_Trp_B_30] | 476 nM | 310 nM | 399 nM | 430 nM | 574 nM
35 | UAAGAAUAAGUAGCAGUGAUGUUGCUACUACGAGGACCGGUACGGCCGCCACUCGAGCCGUACCAACUGCUACAAGGUACGAAUA [(H1)-(H2)-(Trp1)-(Trp2)-(T)'-(H)'-(T)''] | 281 nM | 224 nM | 242 nM | 243 nM | 257 nM
36 | UAAGAGGACCACUGCGAGAGUCCUCGAAUACGAGGACCGGUACGGCCGCCACUCGAUAACUUGCAGUGAUGUUGCAAGUAAGAAU [BrourdMod 3 - Jieux - Same State Tryptophan A] | 98.9 nM | 95.4 nM | 94.1 nM | 102 nM | 81 nM
37 | UAAGUAAGGGAUGAUACCAGAGAGUGAUGUUCUCAAGCGCUAUAGGAUAGCCUUAUCCACCUCCCUUGGCAGCAUACCCACUGGG [theeternabot_exclusion_KL_Theo_B_13] | 333 nM | 311 nM | 355 nM | 346 nM | 340 nM
38 | UAAUAGUAGACCAGGUCUACUAUUAGGGAUACCAGCCUCGGUCGAGGCCCUUGGCAGCCCAGCGGGUCCAGUGAUGUUGGAUGUC [Beoratri] | 400 nM | 284 nM | 371 nM | 207 nM | 342 nM
39 | UAAUCCUAGUGAUACUUAUCAAGUGGUGGGCGAGGACCGGUACGGCCGCCACUCGAAUAUGCAGUGAUGUUGUAAUCCGGAUAAU [Exclusion - Tryptophan A (Freestyle 8)] | 668 nM | 722 nM | 997 nM | 1500 nM | 397 nM
40 | UAAUGCAUGACGGCCGCCACUAGUACUGGAGUGAUGUUGUGGUACGGCGGCAAUAUAGGGUGGACUAGGACCGGGUCAUGCAUAU [KL-XTryp-B12 #analogue] | 403 nM | 336 nM | 346 nM | 380 nM | 432 nM
41 | UAAUUUAUAACUUUUAUAUAAUAAUCAGAUACCAGUGAUUAAUGUCACCCUUGGCAGCUGUAUAGAGUGAUGUUCUAAUGCUUAA [JR_SSTheophyA_Sub023] | 204 nM | 198 nM | 147 nM | 223 nM | 149 nM
42 | UACAUAUAAUUAUUUCUACAUUUAUUUAGUCAGGAUAUCGAUUAAACGAGAAGGGACAAUAUCAAGUGAUGUUUGAUAAUUCAAA [JR_ExcFMNA_Sub010] | 84.6 nM | 127 nM | 75.4 nM | 112 nM | 58.6 nM
43 | UACAUUGCAGUCUUCUUCGUCCUAGAAGACUAGGAUAUCAGGAAACUGAGAAGGAGUCUCUGCAGUGAUGUUGCAGCUAGGACGA [[K]'-[F2]'-[F1]'-[F1]-[F2]-[K1]-[K2]-[F]''_Design1] | 128 nM | 134 nM | 103 nM | 157 nM | 126 nM
